Patent US20250262210A1 (TRUSTEES OF COLUMBIA UNIVERSITY IN THE CITY OF NEW YORK, published 2025)

Columns and labels:
[1] = molecular target: T1, AP4E1 (human, UniProt Q9UPM8 1-1137, limits assumed); test: IP/MS, LZTR1 R810W-FLAG, U87
T1 sequence (looked up): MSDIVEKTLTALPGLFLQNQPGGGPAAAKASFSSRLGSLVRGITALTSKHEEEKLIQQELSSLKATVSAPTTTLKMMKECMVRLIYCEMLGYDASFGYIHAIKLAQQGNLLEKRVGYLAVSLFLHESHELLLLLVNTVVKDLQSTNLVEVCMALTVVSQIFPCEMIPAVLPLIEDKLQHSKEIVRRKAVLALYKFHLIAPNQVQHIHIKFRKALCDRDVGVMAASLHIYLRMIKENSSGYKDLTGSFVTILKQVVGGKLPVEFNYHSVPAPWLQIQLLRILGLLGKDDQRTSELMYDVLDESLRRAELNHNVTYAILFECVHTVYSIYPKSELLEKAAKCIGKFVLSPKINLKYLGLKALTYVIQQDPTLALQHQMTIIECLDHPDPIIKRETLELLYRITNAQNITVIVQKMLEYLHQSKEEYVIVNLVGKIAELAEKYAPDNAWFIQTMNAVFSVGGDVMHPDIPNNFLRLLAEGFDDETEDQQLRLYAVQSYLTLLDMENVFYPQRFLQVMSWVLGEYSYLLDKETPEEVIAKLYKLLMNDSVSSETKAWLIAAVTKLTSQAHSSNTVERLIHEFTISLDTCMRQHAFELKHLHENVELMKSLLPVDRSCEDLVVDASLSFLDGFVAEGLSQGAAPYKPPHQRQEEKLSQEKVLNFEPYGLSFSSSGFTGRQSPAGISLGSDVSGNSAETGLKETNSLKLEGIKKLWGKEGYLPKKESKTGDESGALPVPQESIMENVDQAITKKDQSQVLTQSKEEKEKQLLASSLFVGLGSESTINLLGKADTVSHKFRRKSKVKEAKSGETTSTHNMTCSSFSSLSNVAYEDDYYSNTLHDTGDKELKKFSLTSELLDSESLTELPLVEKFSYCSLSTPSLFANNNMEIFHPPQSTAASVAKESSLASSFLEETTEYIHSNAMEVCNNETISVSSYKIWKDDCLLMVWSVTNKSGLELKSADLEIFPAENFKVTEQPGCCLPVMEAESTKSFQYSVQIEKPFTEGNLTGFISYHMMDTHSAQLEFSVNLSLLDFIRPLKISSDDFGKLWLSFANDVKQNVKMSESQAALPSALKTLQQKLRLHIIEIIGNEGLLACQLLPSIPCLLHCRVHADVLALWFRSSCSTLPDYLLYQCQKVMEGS
Summary of the method: (§1)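 Extracted peptides in 3% acetonitrile/0.1% formic acid ran on a 50 cm C18 column into an Orbitrap Fusion, with MaxQuant identification and spectral counting.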

[2] = molecular target: CDK5RAP2 (human, UniProt Q96SN8 1-1893, limits assumed); test: IP/MS, LZTR1 R810W-FLAG, U87
Summary of the method: as §1

CDK5RAP2, sequence (Q96SN8 whole entry): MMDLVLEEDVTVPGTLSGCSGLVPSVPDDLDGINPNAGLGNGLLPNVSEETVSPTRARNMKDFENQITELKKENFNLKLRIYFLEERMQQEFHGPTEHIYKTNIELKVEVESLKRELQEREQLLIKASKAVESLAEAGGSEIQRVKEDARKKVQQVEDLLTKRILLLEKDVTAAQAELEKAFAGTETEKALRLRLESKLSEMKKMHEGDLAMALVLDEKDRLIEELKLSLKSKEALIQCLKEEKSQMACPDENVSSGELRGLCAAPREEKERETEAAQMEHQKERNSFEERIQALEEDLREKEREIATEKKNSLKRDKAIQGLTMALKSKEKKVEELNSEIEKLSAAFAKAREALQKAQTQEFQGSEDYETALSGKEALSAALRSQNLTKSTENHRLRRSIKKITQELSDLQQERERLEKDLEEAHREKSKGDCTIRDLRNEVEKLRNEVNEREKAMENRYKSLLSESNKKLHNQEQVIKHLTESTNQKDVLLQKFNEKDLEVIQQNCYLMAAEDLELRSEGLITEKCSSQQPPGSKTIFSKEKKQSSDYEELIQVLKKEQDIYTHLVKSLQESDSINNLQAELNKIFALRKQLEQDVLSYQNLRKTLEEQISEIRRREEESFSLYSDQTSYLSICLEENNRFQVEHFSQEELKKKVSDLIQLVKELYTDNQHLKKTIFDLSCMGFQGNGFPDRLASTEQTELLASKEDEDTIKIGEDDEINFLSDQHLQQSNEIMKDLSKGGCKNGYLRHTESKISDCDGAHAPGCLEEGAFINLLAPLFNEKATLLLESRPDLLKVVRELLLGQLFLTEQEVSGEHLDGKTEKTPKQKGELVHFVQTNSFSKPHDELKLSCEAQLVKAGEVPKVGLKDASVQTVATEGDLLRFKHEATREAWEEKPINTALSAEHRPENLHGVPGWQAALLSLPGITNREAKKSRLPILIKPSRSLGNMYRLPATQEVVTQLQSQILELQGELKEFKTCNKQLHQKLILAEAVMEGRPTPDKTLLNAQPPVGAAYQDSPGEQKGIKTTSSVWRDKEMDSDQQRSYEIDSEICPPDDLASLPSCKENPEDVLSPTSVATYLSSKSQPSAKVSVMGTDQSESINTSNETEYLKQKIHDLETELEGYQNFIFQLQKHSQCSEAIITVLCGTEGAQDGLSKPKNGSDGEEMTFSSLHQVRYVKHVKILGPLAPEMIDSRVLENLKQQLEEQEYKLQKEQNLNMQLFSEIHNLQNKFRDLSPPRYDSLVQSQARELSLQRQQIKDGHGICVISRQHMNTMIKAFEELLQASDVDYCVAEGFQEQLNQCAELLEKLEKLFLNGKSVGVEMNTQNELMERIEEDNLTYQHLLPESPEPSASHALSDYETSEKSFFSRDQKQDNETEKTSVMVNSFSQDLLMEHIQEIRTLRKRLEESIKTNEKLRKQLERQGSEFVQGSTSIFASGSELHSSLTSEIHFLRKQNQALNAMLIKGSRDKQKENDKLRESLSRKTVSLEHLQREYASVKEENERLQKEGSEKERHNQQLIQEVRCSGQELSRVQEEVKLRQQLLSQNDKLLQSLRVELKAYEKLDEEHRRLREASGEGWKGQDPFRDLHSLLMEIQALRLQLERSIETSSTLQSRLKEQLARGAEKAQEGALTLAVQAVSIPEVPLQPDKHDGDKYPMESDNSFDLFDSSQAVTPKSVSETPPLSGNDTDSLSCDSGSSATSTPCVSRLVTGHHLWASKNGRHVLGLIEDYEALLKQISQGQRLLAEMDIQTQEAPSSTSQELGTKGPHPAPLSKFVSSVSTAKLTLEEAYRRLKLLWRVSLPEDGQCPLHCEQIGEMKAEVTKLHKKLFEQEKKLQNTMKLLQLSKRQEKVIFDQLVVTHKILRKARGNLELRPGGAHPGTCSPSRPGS

B1: LZTR1 R810W-FLAG (other, human, UniProt Q8N653 1-840, looked up)
chain: MAGPGSTGGQIGAAALAGGARSKVAPSVDFDHSCSDSVEYLTLNFGPFETVHRWRRLPPCDEFVGARRSKHTVVAYKDAIYVFGGDNGKTMLNDLLRFDVKDCSWCRAFTTGTPPAPRYHHSAVVYGSSMFVFGGYTGDIYSNSNLKNKNDLFEYKFATGQWTEWKIEGRLPVARSAHGATVYSDKLWIFAGYDGNARLNDMWTIGLQDRELTCWEEVAQSGEIPPSCCNFPVAVCRDKMFVFSGQSGAKITNNLFQFEFKDKTWTRIPTEHLLRGSPPPPQRRYGHTMVAFDRHLYVFGGAADNTLPNELHCYDVDFQTWEVVQPSSDSEVGGAEVPERACASEEVPTLTYEERVGFKKSRDVFGLDFGTTSAKQPTQPASELPSGRLFHAAAVISDAMYIFGGTVDNNIRSGEMYRFQFSCYPKCTLHEDYGRLWESRQFCDVEFVLGEKEECVQGHVAIVTARSRWLRRKITQARERLAQKLEQEAAPVPREAPGVAAGGARPPLLHVAIREAEARPFEVLMQFLYTDKIKYPRKGHVEDVLLIMDVYKLALSFQLCRLEQLCRQYIEASVDLQNVLVVCESAARLQLSQLKEHCLNFVVKESHFNQVIMMKEFERLSSPLIVEIVRRKQQPPPRTPLDQPVDIGTSLIQDMKAYLEGAGAEFCDITLLLDGHPRPAHKAILAARSSYFEAMFRSFMPEDGQVNISIGEMVPSRQAFESMLRYIYYGEVNMPPEDSLYLFAAPYYYGFYNNRLQAYCKQNLEMNVTVQNVLQILEAADKTQALDMKRHCLHIIVHQFTKVSKLPTLWSLSQQLLLDIIDSLASHISDKQCAELGADI
notes: Stably expressed in U87 cells by lentivirus; also called LZTR1-FLAG-R810W; LZTR1 RW; not shown: FLAG tag
B1: binds [1]; binds [2].
